Data: US20230399376A1 (BAKER HEART AND DIABETES INSTITUTE, published 2023)

Columns and labels:
[1] = molecular target: GPIIb/IIIa on non-activated (resting) human platelets (human, UniProt P08514 32-1039; P05106 27-788); assay: flow cytometry on human platelets, anti-Penta-His Alexa Fluor 488 detection
Protocol: (§1) Binding of scFv-CD39 to activated human platelets was evaluated by flow cytometry: 0.1 mg/mL of scFv-CD39, 0.2 mg/mL of scFvₘᵤₜ-CD39 (both activity matched), and 0.038 mg/mL of anti-CD41 scFv (equimolar amount of the scFv in scFv-CD39) were tested.
(§2) Citrated blood from volunteers was centrifuged at 180 g for 10 minutes. The platelet-rich plasma (PRP) was collected and stored at 37° C. The remainder (infranatant) was centrifuged at 2500 g for 10 minutes, and its supernatant was collected as platelet-poor plasma (PPP).
(§3) PRP was diluted 1:20 in phosphate-buffered saline (PBS; 100 mg/L calcium chloride, 100 mg/L magnesium chloride). To investigate the binding of scFv-CD39 constructs, the diluted PRP ([…]) was either preincubated with a final concentration of […] ADP or […] of PBS for 15 minutes before addition of the constructs. The binding was then determined via a Penta-His Alexa Fluor-488-conjugated monoclonal antibody (Qiagen). To investigate the ecto-nucleoside triphosphate diphosphohydrolase efficiency, PRP was preincubated with scFv-CD39 constructs before administration of […] ADP. Platelet activation status was measured by a phycoerythrin (PE)-labeled anti-P-selectin antibody (BD Bioscience). Samples were fixed using […] Cellfix (BD Bioscience) and analyzed on a FACS Calibur (BD Bioscience).

[2] = molecular target: T1, activated glycoprotein GPIIb/IIIa on ADP-activated human platelets (human, UniProt P08514 32-1039; P05106 27-788); assay: flow cytometry on ADP-activated human platelets, anti-Penta-His Alexa Fluor 488 detection
T1 construct: also called integrin alphaIIbbeta3
T1 sequence (P08514 32-1039 limits assumed, chain 1 of 2): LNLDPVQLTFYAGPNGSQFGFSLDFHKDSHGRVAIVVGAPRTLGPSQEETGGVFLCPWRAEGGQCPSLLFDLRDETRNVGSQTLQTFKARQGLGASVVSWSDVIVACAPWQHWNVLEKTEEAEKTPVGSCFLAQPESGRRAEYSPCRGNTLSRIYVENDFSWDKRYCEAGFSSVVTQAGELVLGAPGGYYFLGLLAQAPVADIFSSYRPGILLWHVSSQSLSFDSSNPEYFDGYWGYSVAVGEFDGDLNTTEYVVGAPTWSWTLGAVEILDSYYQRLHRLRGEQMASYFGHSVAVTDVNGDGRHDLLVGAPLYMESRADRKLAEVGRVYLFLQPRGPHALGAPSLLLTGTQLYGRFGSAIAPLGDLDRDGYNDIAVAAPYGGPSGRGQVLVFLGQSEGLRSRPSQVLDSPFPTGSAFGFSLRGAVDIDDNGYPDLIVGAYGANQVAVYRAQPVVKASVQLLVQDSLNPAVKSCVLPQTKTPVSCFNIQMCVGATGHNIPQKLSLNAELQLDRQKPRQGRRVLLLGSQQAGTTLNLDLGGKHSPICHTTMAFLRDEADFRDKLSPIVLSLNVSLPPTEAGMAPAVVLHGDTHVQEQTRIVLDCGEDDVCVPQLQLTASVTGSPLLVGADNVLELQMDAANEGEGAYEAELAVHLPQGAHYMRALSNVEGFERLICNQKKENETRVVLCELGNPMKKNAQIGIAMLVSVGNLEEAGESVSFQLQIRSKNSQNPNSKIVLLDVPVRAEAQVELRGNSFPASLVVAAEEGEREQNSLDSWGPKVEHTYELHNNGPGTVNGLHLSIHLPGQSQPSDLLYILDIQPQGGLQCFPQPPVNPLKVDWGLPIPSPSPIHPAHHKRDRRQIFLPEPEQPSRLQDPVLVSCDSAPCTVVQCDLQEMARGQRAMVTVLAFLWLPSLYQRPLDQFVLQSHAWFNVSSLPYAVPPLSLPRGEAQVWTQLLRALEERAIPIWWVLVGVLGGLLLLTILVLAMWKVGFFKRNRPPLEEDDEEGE
T1 sequence (P05106 27-788 limits assumed, chain 2 of 2): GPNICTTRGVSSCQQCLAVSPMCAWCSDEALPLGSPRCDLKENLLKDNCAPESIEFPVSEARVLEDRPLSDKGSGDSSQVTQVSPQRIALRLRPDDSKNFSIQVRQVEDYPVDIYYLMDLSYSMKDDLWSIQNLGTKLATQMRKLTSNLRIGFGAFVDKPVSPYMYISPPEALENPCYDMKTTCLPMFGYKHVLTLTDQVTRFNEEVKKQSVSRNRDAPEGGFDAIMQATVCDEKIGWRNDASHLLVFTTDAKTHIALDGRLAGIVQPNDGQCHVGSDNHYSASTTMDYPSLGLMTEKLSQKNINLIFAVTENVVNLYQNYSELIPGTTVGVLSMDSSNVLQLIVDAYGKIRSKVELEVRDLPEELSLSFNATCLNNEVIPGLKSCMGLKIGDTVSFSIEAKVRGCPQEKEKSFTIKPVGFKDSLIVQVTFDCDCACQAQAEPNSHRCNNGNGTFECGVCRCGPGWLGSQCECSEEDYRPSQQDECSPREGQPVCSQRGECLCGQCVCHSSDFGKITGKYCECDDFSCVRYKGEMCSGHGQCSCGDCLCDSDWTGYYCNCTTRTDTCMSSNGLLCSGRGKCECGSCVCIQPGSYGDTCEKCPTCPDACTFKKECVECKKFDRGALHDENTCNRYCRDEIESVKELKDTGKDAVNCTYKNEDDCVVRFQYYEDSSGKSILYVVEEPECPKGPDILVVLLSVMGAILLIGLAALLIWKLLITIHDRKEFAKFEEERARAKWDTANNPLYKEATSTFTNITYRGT
Protocol: as §1, §2, §3

Chain of GPIIb/IIIa on non-activated (resting) human platelets (P08514 32-1039 limits assumed, chain 1 of 2): as the sequence (P08514 32-1039 limits assumed, chain 1 of 2) above
Chain of GPIIb/IIIa on non-activated (resting) human platelets (P05106 27-788 limits assumed, chain 2 of 2): as the sequence (P05106 27-788 limits assumed, chain 2 of 2) above

B1: scFvmut-CD39 (scFv)
chain: HHHHHHHHRRAVRSLVPSSDPLQCGGILAEVQLVQSGAEVNKPGASVKVSCKASGYTFTGYYMHWVRQAPGQGLEWMGWINPNSGGTNYAQKFQGWVTMTRDTSISTAYMELSRLRSDDTAVYYCARGRALYNANDRSPNWFDPWGQGTLVTVSSGSASAPTLKLEEGEFSEARVQAVLTQPPSVSVAPGQTARITCGGNNIGSKSVQWYQQKPGQAPVLVVYDDSDRPSGIPERFSGSNSGNMATLTISRVEAGDEADYYCQVWDSSSDHVVFGGGTKLTVLGGKPIPNPLLGLDSTLPETGGLEEAAATQNKALPENVKYGIVLDAGSSHTSLYIYKWPAEKENDTGVVHQVEECRVKGPGISKFVQKVNEIGIYLTDCMERAREVIPRSQHQETPVYLGATAGMRLLRMESEELADRVLDVVERSLSNYPFDFQGARIITGQEEGAYGWITINYLLGKFSQKTRWFSIVPYETNNQETFGALDLGGASTQVTFVPQNQTIESPDNALQFRLYGKDYNVYTHSFLCYGKDQALWQKLAKDIQVASNEILRDPCFHPGYKKVVNVSDLYKTPCTKRFEMTLPFQQFEIQGIGNYQQCHQSILELFNTSYCPYSQCAFNGIFLPPLQGDFGAFSAFYFVMKFLNLTSEKVSQEKVTEMMKKFCAQPWEEIKTSYAGVKEKYLSEYCFSGTYILSLLLQGYHFTADSWEHIHFIGKIQGSDAGWTLGYMLNLTNMIPAEQPLSTPLSHSTTRGGPEQKLISEEDLNSAVDHHHHHH
notes: Non-targeting control construct; also called non-targ-CD39; Non-targCD39; not shown: 6xHis-tag used for detection
binding result [1]: no binding (tested: 0.2 mg/mL) | binding result [2]: no binding (tested: 0.2 mg/mL)
